The source of these data is patent US20170101470A1 (PROTHENA BIOSCIENCES, published 2017).

Changes are numbered by the printed parent chain.

Holding throughout (assay): shotgun mutagenesis, immunodetection on BHK-S cells, 0.25 ug/mL, background-subtracted and normalised to WT, triplicate
In test [1] the target is T1, human MCAM L225A mutant clone on BHK-S cells (human) (UniProt P43121).
T1 sequence: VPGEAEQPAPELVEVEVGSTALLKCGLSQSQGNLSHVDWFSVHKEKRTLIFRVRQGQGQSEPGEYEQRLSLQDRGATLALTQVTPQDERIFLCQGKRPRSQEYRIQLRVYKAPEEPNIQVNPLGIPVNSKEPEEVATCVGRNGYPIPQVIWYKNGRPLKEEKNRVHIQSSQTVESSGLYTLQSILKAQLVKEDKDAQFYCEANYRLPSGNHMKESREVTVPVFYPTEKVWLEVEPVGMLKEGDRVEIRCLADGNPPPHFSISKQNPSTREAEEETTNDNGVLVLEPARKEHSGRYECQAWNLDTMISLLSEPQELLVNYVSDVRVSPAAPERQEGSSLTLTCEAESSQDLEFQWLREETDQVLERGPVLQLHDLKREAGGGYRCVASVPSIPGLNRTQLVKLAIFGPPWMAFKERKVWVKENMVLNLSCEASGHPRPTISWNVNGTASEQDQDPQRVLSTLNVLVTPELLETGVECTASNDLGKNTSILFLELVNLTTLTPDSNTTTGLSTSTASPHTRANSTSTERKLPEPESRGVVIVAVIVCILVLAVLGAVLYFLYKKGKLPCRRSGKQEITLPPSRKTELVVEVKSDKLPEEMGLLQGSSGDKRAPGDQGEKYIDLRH

The target in test [2] is T2, human MCAM P145A mutant clone on BHK-S cells (human) (UniProt P43121).
T2 sequence: T1 sequence with P122A, A202L

For test [3], the target named is T3, human MCAM S206A mutant clone on BHK-S cells (human) (UniProt P43121).
T3 sequence: T1 sequence with S183A, A202L

For test [4], the target named is T4, human MCAM S238A mutant clone on BHK-S cells (human) (UniProt P43121).
T4 sequence: T1 sequence with A202L, S215A

B1: rat anti-human MCAM monoclonal antibody clone 2120.4.19 (antibody, V domains shown)
VH: QVQLKESGPGLVQPSQTLSLTCTVSGFSLTSNGVSWVRQPPGKGLEWIAAISSGGTTYYNSAFKSRLSISRNTSKSQVLLKMNSLQTEDTAMYFCARRYGYGWYFDFWGPGTMVTVSS
VL: DIRMTQSPSLLSASVGDRVTLNCKASQNIYNSLAWYQQKLGEGPKVLIPNANSLQTGIPSRFSGSGSGTDFTLTISSLQPEDFATYFCQQFYSGYTFGAGTKLELK
notes: also called m2120
As to B1, the mean reactivity (% of wild type MCAM) in test [1] is 23.8 % WT; in test [2], 26.3 % WT; in test [3] it was 17.9 % WT; in test [4], 28.9 % WT.
